The chains are these.
T1: hPRLR.mmh (soluble monomeric human PRLR) (human)
T1 construct: called soluble monomeric PRLR protein
T1 chain: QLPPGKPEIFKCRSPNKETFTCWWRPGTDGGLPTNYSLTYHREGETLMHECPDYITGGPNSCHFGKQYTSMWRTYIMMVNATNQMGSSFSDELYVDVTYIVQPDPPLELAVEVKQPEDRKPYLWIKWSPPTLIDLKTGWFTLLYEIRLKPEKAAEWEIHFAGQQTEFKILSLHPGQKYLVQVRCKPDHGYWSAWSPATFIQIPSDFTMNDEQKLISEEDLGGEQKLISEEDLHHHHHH

T2: hPRLR.mFc (soluble dimeric human PRLR) (human)
T2 construct: dimeric PRLR construct
T2 chain: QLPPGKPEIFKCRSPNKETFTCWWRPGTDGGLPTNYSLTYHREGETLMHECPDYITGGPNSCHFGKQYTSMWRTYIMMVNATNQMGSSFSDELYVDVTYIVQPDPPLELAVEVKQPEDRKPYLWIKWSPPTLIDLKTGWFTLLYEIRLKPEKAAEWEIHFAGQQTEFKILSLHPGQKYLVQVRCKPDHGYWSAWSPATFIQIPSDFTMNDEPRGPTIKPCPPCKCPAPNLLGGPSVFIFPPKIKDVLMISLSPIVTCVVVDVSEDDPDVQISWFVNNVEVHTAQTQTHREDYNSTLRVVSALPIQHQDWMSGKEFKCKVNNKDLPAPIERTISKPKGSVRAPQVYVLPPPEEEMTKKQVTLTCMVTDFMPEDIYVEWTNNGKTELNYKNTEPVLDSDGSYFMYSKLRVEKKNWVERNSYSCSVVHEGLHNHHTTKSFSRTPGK

T3: macaca fascicularis (mf) PRLR.mmh (soluble monomeric monkey PRLR) (Macaca fascicularis)
T3 construct: called soluble monomeric PRLR protein
T3 chain: T1 chain with I76V, A110T, I125M, I158T, T207I

B1: H1H6793P (antibody, human IgG1, V domains shown)
VH: EVQLVESGGGLVQPGGSLRLSCAASGFSFSIYAMSWFRQAPGKGLEWVSAINGRGDGTHYADSVKGRFTISRDNSKTTLYLQMSSLRAEDTAVYYCAKPVMSTNGFDIWGQGTMVTVSS
VL: DIQMTQSPSTLSASVGDRVTITCRASQSISSWLAWYQLKPGKAPKLLIYKASNLESGVPSRFSGSGSGTEFTLTISSLQPDDFATYYCQQYNIYWTFGQGTKVEIK
notes: Human IgG1 Fc (H1H)
B2: H1H6792P (antibody, human IgG1, V domains shown)
VH: EVQLVESGGGLVQPGRSLRLSCAASGFTLDDHAVHWVRQAPGKGLEWVSGISWNSVYIDYADSVKGRFTIFRDNAKNSLYLQMNSLRAEDTAFYYCARDIEGARDYWGQGTLVTVSS
VL: DIQMTQSPSSLSASVGDRVTITCRASQGIRNDLGWYQQKPGKAPKRLIYAASSLQSGVPSRFSGSGYGTEFTLTISSLQPEDFAPYYCLQHNSYPLTFGGGTKVEIK
notes: Human IgG1 Fc (H1H)
B3: H1H6785P (antibody, human IgG1, V domains shown)
VH: EVQLVESGGGLVQPGGSLRLSCAASGFTFSSYEMNWVRQAPGKGLEWISYISSRGGTIYYADSIKGRFTIYRDNARNSLYLQMNSLRAEDTAIYYCARLSGVDIFDIWGQGTMVTVSS
VL: DIQMTQSPSSLSASVGDRVTITCRASQGISNYLAWYQQKPGKVPKLLIYFASTLQSGVPSRFSGGGSGTDFTLTISSLQPEDVATYYCQRYNSAPLTFGGGTKVEIK
notes: Human IgG1 Fc (H1H)
B4: H1H6800P (antibody, human IgG1, V domains shown)
VH: EVQLVESGGGLVQPGRSLRLSCAASGFTFDGYAMHWVRQGPGKGLEWVSGISWYSDTLGYADSVKGRFTISRDNAKNSLYLQMNSLRTEDTAFYYCAKISSSGWAFDYWGQGTLVTVSS
VL: EIVLTQSPGTLSLSPGERATLSCRASHSVSSAYLAWYQQKPGQTPRLLIYGTSSRATGIPDRFSGSGSGTDFTLTISRLEPEDFAVYYCQQYGSSPLFTFGPGTKVDIK
notes: Human IgG1 Fc (H1H)
B5: H1H6795P (antibody, human IgG1, V domains shown)
VH: QVQLVQSGAEVKKPGASVKVSCKASGYTFGTSGITWVRQAPGQGLEWMGWSSAYNGKTDYAQKFQDRVTMTTDTSTTTGYMEMRSLTSDDTAVYYCTTVVRRPFDFWGQGTLVTVSS
VL: DIQMTQSPSSLSASVGDRVTITCRASQDINNFLAWFQQKPGKAPKSLIYAASSLQSGVPSKFSGGGSGTDFALTISSLQPEDFATYYCQQYSSYPITFGQGTRLEIK
notes: Human IgG1 Fc (H1H)
B6: H1H6801P (antibody, human IgG1, V domains shown)
VH: QVQLQQSGPGLVKPSQTLSLTCVISGDSVSSNTAWNWVRQSPSRGLEWLGRTYYRSKWYNDYAVSVKSRITINPDTSKNQFSLLMNSVTPEDTAVYYCARVVRGLNYFDYWGQGTLVTVSS
VL: DIVMTQSPDSLAVSLGERATINCKSSQSVLYNSNNKNYLAWYQQKPGQPPKLLIYWSSSRESGVPDRFSGSGSGTDFTLTISGLQAEDVAIYYCQQYSTIPYTFGQGTKLEIK
notes: Human IgG1 Fc (H1H)
B7: H1H6797P (antibody, human IgG1, V domains shown)
VH: EVQLVESGGGLVQPGGSLRLSCIVSGFTFSGSWMSWVRQLPGKGLEWVANIKEDGSDSYYVDSVEGRFTISRDNAKSSLYLQMNSLRVDDTAVYFCARARTVPLHYWGQGTLVTVSS
VL: DIQMTQSPSTLSASVGDRVTITCRASQSINIWLAWYQQKPGKAPKLLIYRASYLESGVPSSFAGGGSGTEFTLTISSLQPDDFGTYYCQHYNSYPFTFGQGTKLEIK
notes: Human IgG1 Fc (H1H)
B8: H1H6803P (antibody, human IgG1, V domains shown)
VH: EVQLVESGGGVVRPGGSLRLSCAASGFKFDDYGMTWVRHVPGKGLEWVSGINWNGGRTGYTDSVKGRFTISRDNAKNSLYLQMNSLRAEDTALYHCAGARRDAFDIWGQGTMVTVSS
VL: DIQMTQSPSSLSASIGDRVTITCRASQNIIKYLNWYQQNAGKAPKLLIYTASSLQSGVPSRFSGSGSGTDFTLTISSLQPEDFATYYCQQSSSSPYTFGQGTKLEIK
notes: Human IgG1 Fc (H1H)
B9: H1H6790P (antibody, human IgG1, V domains shown)
VH: EVQLVESGGGLVQPGGSLRLSCAASGFTFSSYAMTWVRQAPGKGLEWVSAITGSVGNTYYADSVKGRFTISRDNSKNTLYLQMNSLGAEDTAEYYCAKGAGMTTNWYLDLWGRGTLVTVSS
VL: DIVMTQSPDSLAVSLGARATINCKSSQSVLYSSNNQNYLTWYQQKPGQPPKLLIKWASTRESGVPDRFSGSGSGTDFTLTISSLQAEDVAVYYCQQYASSPYTFGQGTKLEIK
notes: Human IgG1 Fc (H1H)

Positions count from the first letter of the chain named. Numbers in names are those of the source.

The target of the first assay is T1, hPRLR.mmh (soluble monomeric human PRLR). Kind of assay: SPR Biacore, 25 C, mAb capture. Here is the method: (§1) Measurements were conducted on a T200 Biacore instrument. Kinetic association (kₐ) and dissociation (kd) rate constants were determined by processing and fitting the data to a 1:1 binding model using Scrubber 2.0 curve fitting software.
(In general: Surface plasmon resonance follows binding to a sensor surface in real time, without labels.)
As for B1, the equilibrium dissociation constant (Kd) was 1.41 nM, the T½ was determined as 35 min, the dissociation rate constant (koff) came out at 0.000332 s⁻¹ and the kon worked out at 235000 M⁻¹ s⁻¹.
The corresponding values for B2 are 2.45 nM, 15 min, 0.000794 s⁻¹ and 324000 M⁻¹ s⁻¹.
The molecule B3 registered a Kd of 0.567 nM, a T½ of 68 min, an off-rate (koff) of 0.000171 s⁻¹ and a kon of 301000 M⁻¹ s⁻¹.
On to B4, for which the dissociation constant Kd amounted to 0.972 nM, the T½ amounted to 28 min, the koff is 0.000409 s⁻¹ and the on-rate constant (kon) was 421000 M⁻¹ s⁻¹.
Turning to B5, the dissociation constant Kd turned out to be 1.52 nM, the T½ was 7 min, the koff amounted to 0.00177 s⁻¹ and the kon came out at 1.17e+06 M⁻¹ s⁻¹.
Molecule B6 showed a dissociation constant Kd of 0.894 nM, a T½ of 15 min, a dissociation rate constant (koff) of 0.000756 s⁻¹ and an association rate constant (kon) of 846000 M⁻¹ s⁻¹.
The corresponding values for B7 are 1.73 nM, 6 min, 0.00196 s⁻¹ and 1.13e+06 M⁻¹ s⁻¹.
B8 returned a Kd of 1.67 nM, a T½ of 84 min, a koff of 0.000137 s⁻¹ and an on-rate (kon) of 82400 M⁻¹ s⁻¹.
The corresponding values for B9 are 1.41 nM, 14 min, 0.000799 s⁻¹ and 565000 M⁻¹ s⁻¹.

Another assay deals with T2, hPRLR.mFc (soluble dimeric human PRLR). Kind of assay: SPR Biacore, 25 C, mAb capture. Here is the method:
as §1
As to B1, the Kd turned out to be 0.331 nM, the T½ was 153 min, the koff amounted to 7.57e-05 s⁻¹ and the kon worked out at 229000 M⁻¹ s⁻¹.
The corresponding values for B2 are 0.313 nM, 122 min, 9.48e-05 s⁻¹ and 303000 M⁻¹ s⁻¹.
The corresponding values for B3 are 0.231 nM, 190 min, 6.07e-05 s⁻¹ and 263000 M⁻¹ s⁻¹.
As for B4, the Kd was 0.184 nM, the T½ was 133 min, the dissociation rate constant (koff) was determined as 8.69e-05 s⁻¹ and the on-rate constant (kon) was determined as 473000 M⁻¹ s⁻¹.
The corresponding values for B5 are 0.0545 nM, 137 min, 8.41e-05 s⁻¹ and 1.54e+06 M⁻¹ s⁻¹.
Consider B6, for which the affinity, expressed as Kd, was 0.161 nM; the T½ turned out to be 106 min; the off-rate constant (koff) is 0.000109 s⁻¹; the kon is 675000 M⁻¹ s⁻¹.
In the case of B7, the Kd amounted to 0.122 nM, the T½ stood at 97 min, the koff amounted to 0.000119 s⁻¹ and the kon was 982000 M⁻¹ s⁻¹.
The corresponding values for B8 are 0.607 nM, 184 min, 6.29e-05 s⁻¹ and 104000 M⁻¹ s⁻¹.
For B9, the dissociation constant Kd was found to be 0.192 nM, the T½ is 111 min, the koff was found to be 0.000104 s⁻¹ and the kon worked out at 542000 M⁻¹ s⁻¹.

For the next assay, the target named is T3, macaca fascicularis (mf) PRLR.mmh …. The assay is described as follows: SPR Biacore, 25 C, mAb capture. The procedure:
as §1
B1 came in with an equilibrium dissociation constant (Kd) of 2.22 nM, a T½ of 29 min, a koff of 0.000393 s⁻¹ and a kon of 177000 M⁻¹ s⁻¹.
As to B2, binding was characterised by a dissociation constant (Kd) of 4.17 nM, the T½ stood at 12 min, the dissociation rate constant (koff) was 0.000983 s⁻¹ and the kon was 236000 M⁻¹ s⁻¹.
As for B3, the affinity, expressed as Kd, was 0.738 nM; the T½ was found to be 69 min; the koff was 0.000167 s⁻¹; the association rate constant (kon) is 227000 M⁻¹ s⁻¹.
Molecule B4 showed a Kd of 1.25 nM, a T½ of 30 min, a koff of 0.00038 s⁻¹ and a kon of 303000 M⁻¹ s⁻¹.
The corresponding values for B5 are 2.33 nM, 6 min, 0.00197 s⁻¹ and 844000 M⁻¹ s⁻¹.
The corresponding values for B6 are 1.88 nM, 9 min, 0.00123 s⁻¹ and 657000 M⁻¹ s⁻¹.
The corresponding values for B7 are 3.12 nM, 6 min, 0.00209 s⁻¹ and 670000 M⁻¹ s⁻¹.
The molecule B8 had an equilibrium dissociation constant (Kd) of 3.37 nM, a T½ of 55 min, a koff of 0.000209 s⁻¹ and an association rate constant (kon) of 62100 M⁻¹ s⁻¹.
The corresponding values for B9 are 2.04 nM, 15 min, 0.000793 s⁻¹ and 389000 M⁻¹ s⁻¹.

For orientation: Kd means the free concentration of one partner at which half of the binding sites on the other are occupied at equilibrium, for simple one-to-one binding. As usually defined, the koff is a measure of how fast the partners let go of each other. A word on the kon: it is the second-order rate constant of association.

(Values after patent US20180185504A1 (Regeneron, published 2018).)
